Target: OM14 assembled in the outer membrane of isolated mitochondria (S. cerevisiae (endogenous in yeast)) (UniProt P38325)
Assay: co-sedimentation; 10 μg purified yeast ribosomes with 25 μg highly purified mitochondria (OM14^+ or OM14Δ, from NAC-deleted cells), 5 min at room temperature in MA buffer, 10,000 g; Rpl3 in the pellet normalised to Tom20

Chain of UniProt P38325 (P38325 whole entry): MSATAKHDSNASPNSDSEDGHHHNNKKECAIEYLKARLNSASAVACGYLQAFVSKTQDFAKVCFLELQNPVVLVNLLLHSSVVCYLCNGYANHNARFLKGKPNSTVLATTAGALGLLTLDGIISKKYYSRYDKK

“yeast cytosolic ribosomes (from UniProt P14126 1-387) (complex)” showed a fold ribosomal association, mitochondria with OM14 over OM14Δ mitochondria of over 2 fold.
